# Laboratory results as given in patent US6613878 (CYCLACEL, dated 2003).
# Ends that are not written are not given here. * marks the point of attachment. Biotin = O=C1N[C@H]2[C@H](CS[C@H]2CCCCC(=O)*)N1
# Experiments:
# [1] = target: T1, human PCNA (proliferating cell nuclear antigen) (human, UniProt P12004 1-261); experiment: precipitation assay
# T1 construct: also called recombinant human PCNA
# Procedure: (§1) Twenty amino acid peptides with 15 amino acid overlaps were synthesized (Chiron Mimotopes, Australia) across the 89 amino acids from the C-terminal region of Fen1 identified in the two hybrid screen as the PCNA binding site on Fen1. These peptides were linked via residues SGSG (SEQ ID NO:3) at the amino acid terminus to biotin. 2.7 µg of each peptide was incubated with 10 µl streptavidin agarose beads (Sigma) in phosphate buffered saline (PBS) for 1 hour at room temperature (r.t.) then beads were washed extensively in PBS and recovered each time by centrifugation at 11,600 g. HeLa cell lysate was added to the washed beads to a final protein concentration of 1 mg/ml and incubated with the beads on ice for 1 hour. Beads were extensively washed in PBS with 220 mM NaCl, then bound proteins removed by boiling for 8 minutes in SDS loading buffer with 0.2 M DTT. Proteins were separated on 10% SDS-PAGE then electrophoretically transferred to nitrocellulose. Blots were blocked then incubated for 1 hour r.t. with PC 10 hybridoma supernatant (Waseem & Lane, 1990) diluted 1:5 in DMEM with 10% FCS. After washing, secondary HRP-conjugated anti-mouse IgG serum at 1:1000 in 2% non-fat milk-PBS-0.2% Tween was added for 1 hour at r.t. Bound antibody was visualised using the ECL system according to the manufacturer's instructions (Amersham plc.)
# To map precisely the residues of Fen1 to which PCNA binds, a series of biotinylated 20 amino acids peptides (with 15 amino acid overlaps) were synthesized representing the region of Fen1 found to interact with PCNA in the two hybrid screen (FIG. 1). Fen1 peptides (bound to streptavidin agarose beads) were incubated with human HeLa cell extracts, then beads were precipitated and bound protein analysed on immunoblots probed with monoclonal anti-PCNA antibody PC10 (Waseen & Lane, 1990).
# [2] = target: T2, human Fen1 fused to the transcriptional activation domain of Gal4 (Gal4ACT) (human, UniProt P39748 1-380); experiment: yeast two hybrid
# T2 construct: range 1-380; Yeast two hybrid prey; also called DNase IV; rad2hs
# From the text: The 89 Amino Acids From the C-terminal Region of Fen1 Bind PCNA in an Interaction Trap Proteins that interact physically with human PCNA were screened using a two hybrid interaction trap system that detects protein-protein interactions by reconstitution of a functional Gal4 transcriptional activator in the yeast *Saccharomyces cerevisiae*. A plasmid expressing human PCNA in fusion with the DNA binding domain of Gal4 (Gal4AS) was used to screen plasmids expressing fusion constructs of molecules encoded by fragments from a human cDNA library with the transcriptional activation domain of Gal4 (Gal4ACT). […] The minimal Fen1 fragment isolated in our screen (FIG. 1) encoded the 89 amino acids from the C-terminal region of the protein (full length 380 aa, (Murray et al., 1994)), therefore localising the PCNA binding site to these residues.
# [3] = target: T1, human PCNA (proliferating cell nuclear …); experiment: peptide on streptavidin agarose beads, precipitation from HeLa extract, PC10 immunoblot
# Procedure: as §1, with “These” for “Twenty amino acid peptides with 15 amino acid overlaps were synthesized (Chiron Mimotopes, Australia) across the 89 amino acids from the C-terminal region of Fen1 identified in the two hybrid screen as the PCNA binding site on Fen1. These”
# The region of human Fen1 recognised by PCNA in the precipitation assay contains a motif highly conserved in the Fen1 family. We examined whether human PCNA could bind to his motif in the yeast homologues of Fen1, *S. pombe* rad2 and *S. pombe* RAD27/YKL510. […]
# T1 sequence (P12004 whole entry): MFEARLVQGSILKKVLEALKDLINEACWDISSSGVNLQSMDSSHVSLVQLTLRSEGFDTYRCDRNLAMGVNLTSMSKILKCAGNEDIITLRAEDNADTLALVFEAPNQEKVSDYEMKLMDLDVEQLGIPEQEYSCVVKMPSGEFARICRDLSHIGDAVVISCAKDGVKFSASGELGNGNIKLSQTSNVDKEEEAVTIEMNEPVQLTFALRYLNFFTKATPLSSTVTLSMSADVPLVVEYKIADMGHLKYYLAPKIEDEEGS
# T2 sequence (P39748 whole entry, the tested form may be a part): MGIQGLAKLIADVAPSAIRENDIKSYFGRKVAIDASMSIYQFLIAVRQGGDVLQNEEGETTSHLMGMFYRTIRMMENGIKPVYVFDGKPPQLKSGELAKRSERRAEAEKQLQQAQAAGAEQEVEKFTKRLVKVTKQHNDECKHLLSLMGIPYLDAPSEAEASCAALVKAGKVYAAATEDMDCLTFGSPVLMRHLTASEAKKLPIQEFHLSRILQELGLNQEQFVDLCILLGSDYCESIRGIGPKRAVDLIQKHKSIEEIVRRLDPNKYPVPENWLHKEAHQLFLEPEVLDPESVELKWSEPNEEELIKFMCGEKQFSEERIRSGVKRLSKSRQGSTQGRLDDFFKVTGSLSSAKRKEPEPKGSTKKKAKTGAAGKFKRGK
binding result [1],Binder,other results
binds,"Biotin-SGSGKRLSKSRQGSTQGRLDDFFK (also called FenPBP) [Fen1 peptide 84 (Fen1PBP, Fen1-PCNA binding peptide)]",–
binds,Biotin-SGSGSRQGSTQGRLDDFFKVTGSL [Fen1 peptide 85],–

# More lines, now with the values behind:
Binder,binding result [1],other results
"ASKTIPQGRLDSFFKPVPSS (not fully specified (N-terminus); also: biotinylated, position not given here, also called rad2 peptide) [peptide 92, 20 amino acid peptide of the conserved box of S. pombe rad2]",binds,–
"PCNA from Schizosaccharomyces pombe (other, UniProt Q03392 1-260, looked up, Two hybrid construct; the Gal4 fusion is not described for this protein; also called S. pombe PCNA; pcn1 product) MLEARFQQAALLKKLLDAIKELVTDANFDCNDNGISLQAMDSSHVALVSMLIKSDGFEPYRCDRNIALGINLNALSKVLRCAQNEDLVTLKAEDTPEVLNLVFESEKNDRISDYDVKLMDIDQEHLGIPDIEYDATITMPAAEFQRITRDLLTLSDSVTINASKEGVRFSCKGDIGNGSTTLKQHTDLSDQDQSIEISLTQAVTLTFSLKYLAQFTKATPLATRVTLSMSNDVPLLVEYKMESGFLRFYLAPKIGEEDEE",–,binding result [2]: binds
"GLKSGIQGRLDGFFQVVPKT (not fully specified (N-terminus); also: biotinylated, position not given here, also called RAD27 peptide) [peptide 93, 20 amino acid peptide of the conserved box of S. cerevisiae RAD27/YKL510]",–,binding result [3]: binds
"PCNA from Drosophila melanogaster (other, UniProt P17917 1-260, looked up, Two hybrid construct; the Gal4 fusion is not described for this protein; also called D. melanogaster PCNA) MFEARLGQATILKKILDAIKDLLNEATFDCSDSGIQLQAMDNSHVSLVSLTLRSDGFDKFRCDRNLSMGMNLGSMAKILKCANNEDNVTMKAQDNADTVTIMFESANQEKVSDYEMKLMNLDQEHLGIPETDFSCVVRMPAMEFARICRDLAQFSESVVICCTKEGVKFSASGDVGTANIKLAQTGSVDKEEEAVIIEMQEPVTLTFACRYLNAFTKATPLSTQVQLSMCADVPLVVEYAIKDLGHIRYYLAPKIEDNET",–,binding result [2]: binds
Biotin-SGSGTQGRLDDFFKVTGSLSSAKR [Fen1 peptide 86],binds,–
